According to publication PMC9119168:

These substances were tested against 10 amino acid biotinylated and ADP-ribosylated peptide [ARTK(Bio)QTARK (Aoa-RADP)S] (assay: AlphaScreen or HTRF).

MERS-CoV Mac1, His-tagged (domain or fragment), sequence (K9N638 1110-1276 limits assumed): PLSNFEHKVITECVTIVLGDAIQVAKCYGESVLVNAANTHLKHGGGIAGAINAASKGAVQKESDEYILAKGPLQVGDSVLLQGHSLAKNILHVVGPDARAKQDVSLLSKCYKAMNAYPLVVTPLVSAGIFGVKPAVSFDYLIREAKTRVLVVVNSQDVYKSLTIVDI

| Substance | macrodomain concentration at the maximum AS signal [µM] |
| --- | --- |
| SARS-CoV Mac1, His-tagged (domain or fragment) | 1.25 to 2.5 |
| MERS-CoV Mac1, His-tagged (domain or fragment) | 1.25 to 2.5 |
| SARS-CoV-2 Mac1 (conserved macrodomain of non-structural protein 3), His-tagged (from UniProt P0DTD1) (domain or fragment) | 0.625 |
| human macrodomain Mdo2, His-tagged (domain or fragment) | 0.04 |
